Our source for the Kd values is patent US20190248882A1 (ALLERGAN, published 2019).

For orientation: Kd means a measure of binding affinity in units of concentration. Low readings indicate tighter binding, high ones weaker binding.

The test has as its target T1, human ANG-2 (R&D Systems) (human, UniProt O15123 68-496, limits assumed, biotinylated in the Tie-2 competition ELISA (site not stated)).
T1 construct: Protein bought from R&D Systems; It was unlabelled in the Octet assay and biotinylated in the ELISA; also called angiopoietin-2; ANGPT2
T1 sequence: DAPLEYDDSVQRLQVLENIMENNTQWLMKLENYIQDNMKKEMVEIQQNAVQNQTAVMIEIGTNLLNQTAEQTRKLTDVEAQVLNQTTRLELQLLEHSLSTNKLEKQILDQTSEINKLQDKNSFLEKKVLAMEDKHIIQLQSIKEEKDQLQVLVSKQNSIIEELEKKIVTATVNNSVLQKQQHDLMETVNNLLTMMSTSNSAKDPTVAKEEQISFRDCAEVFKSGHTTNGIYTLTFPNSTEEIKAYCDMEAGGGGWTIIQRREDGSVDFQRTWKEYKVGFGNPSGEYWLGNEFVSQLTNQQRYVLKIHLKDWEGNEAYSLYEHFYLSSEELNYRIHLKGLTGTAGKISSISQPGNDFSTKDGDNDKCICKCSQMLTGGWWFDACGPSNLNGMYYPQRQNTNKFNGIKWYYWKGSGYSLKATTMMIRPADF
Kind of test: BLI (Octet QKe); HCAb captured on anti-hIgG Fc tips, ANG-2 at 20 to 500 nM in solution. As to the method:
Affinity measurements were performed using a fortéBIO OCTET® QK^e system equipped with anti-hlgG Fc capture (AHC) biosensor tips and strepavidin-coated biosensors (fortéBIO, Menlo Park, Calif.). For AHC affinity measurement, purified anti-ANG-2 HCAb A33A8 was tested for its binding capacity with AHC sensor tips. Tips were loaded using 20 μg/ml anti-ANG-2 A33A8 HCAb. Loading proceeded for 300 sec resulting in capture levels of between 1.8 and 2 nm. ANG-2 (R & D systems) antigen was prepared for binding analysis by dilution to concentrations of 20 to 500 nM in 1×PBS. Association was initiated and monitored for 200 sec, after which tips were transferred to 1×PBS buffer without Factor protein (Gibco, PBS pH 7.2), in order to monitor dissociation. Anti-ANG-2 A33A8 HCAb binding activity was then monitored in real time using bio-layer interferometry analysis. Antigen binding affinities were calculated for the tested ANG-2 based on the measured association (“Kassoc”) and dissociation (“Kdissoc”) constants. Data were processed and analyzed using the OCTET® data analysis software 6.4 (fortéBIO) (FIG. 4).
For orientation: In BLI a coated tip is dipped into the sample, and binding shifts an interference pattern.

B1: A33A8 human anti-ANG-2 HCAb (antibody, human IgG1, V domains shown)
VH: QVQLVESGGGLVQPGGSLRLSCAASGFTFSSYWMHWVRQAPGKGLVWVSRINSDGSSTSYADSVKGRFTISRDNAKNTLYLQMNSLRAEDTAVYYCAREGYSSGGQFDYWGQGTLVTVSS
notes: also called anti-ANG-2 HCAb A33A8; anti-ANG-2 A33A8 HCAb
In the case of B1, the equilibrium dissociation constant (Kd) was less than 1 pM.
